{"source": "paper PMC11529724", "binders": {"B1": {"name": "TTLL6 Y479A (enzyme)", "chain": "GKKKRKKKRLVINLSNCRYDSVRRAAQQYGLREAGDNDDWTLYWTDYSVSLERVMEMKSYQKINHFPGMSEICRKDLLARNMSRMLKLFPKDFHFFPRTWCLPADWGDLQTYSRTRKNKTYICKPDSGCQGRGIFITRSVKEIKPGEDMICQLYISKPFIIDGFKFDLRVYVLVTSCDPLRVFVYNEGLARFATTSYSHPNLDNLDEICMHLTNYSINKHSSNFVQDAFSGSKRKLSTFNSYMKTHGYDVEQIWRGIEDVIIKTLISAHPVIKHNYHTCFPSHTLNSACFEILGFDILLDRKLKPWLLEVNHSPSFSTDSKLDKEVKDSLLYDALVLINLGNCDKKKVLEEERQRGRFLQQCPNREIRLEEVKGFQAMRLQKTEEYEKKNCGGFRLIYPGLNLEKYDKFFQDNSSLFQNTVASRARELAARQLIQELRQKQEKKVFLKKARK"}, "B2": {"name": "TTLL6 Leu409 to alanine (enzyme)", "chain": "GKKKRKKKRLVINLSNCRYDSVRRAAQQYGLREAGDNDDWTLYWTDYSVSLERVMEMKSYQKINHFPGMSEICRKDLLARNMSRMLKLFPKDFHFFPRTWCLPADWGDLQTYSRTRKNKTYICKPDSGCQGRGIFITRSVKEIKPGEDMICQLYISKPFIIDGFKFDLRVYVLVTSCDPLRVFVYNEGLARFATTSYSHPNLDNLDEICMHLTNYSINKHSSNFVQDAFSGSKRKLSTFNSYMKTHGYDVEQIWRGIEDVIIKTLISAHPVIKHNYHTCFPSHTLNSACFEILGFDILLDRKLKPWLLEVNHSPSFSTDSKLDKEVKDSLLYDALVLINLGNCDKKKVLEEERQRGRFAQQCPNREIRLEEVKGFQAMRLQKTEEYEKKNCGGFRLIYPGLNLEKYDKFFQDNSSLFQNTVASRARELYARQLIQELRQKQEKKVFLKKARK"}, "B3": {"name": "TTLL6 F425 to alanine (enzyme)", "chain": "GKKKRKKKRLVINLSNCRYDSVRRAAQQYGLREAGDNDDWTLYWTDYSVSLERVMEMKSYQKINHFPGMSEICRKDLLARNMSRMLKLFPKDFHFFPRTWCLPADWGDLQTYSRTRKNKTYICKPDSGCQGRGIFITRSVKEIKPGEDMICQLYISKPFIIDGFKFDLRVYVLVTSCDPLRVFVYNEGLARFATTSYSHPNLDNLDEICMHLTNYSINKHSSNFVQDAFSGSKRKLSTFNSYMKTHGYDVEQIWRGIEDVIIKTLISAHPVIKHNYHTCFPSHTLNSACFEILGFDILLDRKLKPWLLEVNHSPSFSTDSKLDKEVKDSLLYDALVLINLGNCDKKKVLEEERQRGRFLQQCPNREIRLEEVKGAQAMRLQKTEEYEKKNCGGFRLIYPGLNLEKYDKFFQDNSSLFQNTVASRARELYARQLIQELRQKQEKKVFLKKARK"}, "B4": {"name": "Atto488-labeled TTLL6 (enzyme)", "chain": "GKKKRKKKRLVINLSNCRYDSVRRAAQQYGLREAGDNDDWTLYWTDYSVSLERVMEMKSYQKINHFPGMSEICRKDLLARNMSRMLKLFPKDFHFFPRTWCLPADWGDLQTYSRTRKNKTYICKPDSGCQGRGIFITRSVKEIKPGEDMICQLYISKPFIIDGFKFDLRVYVLVTSCDPLRVFVYNEGLARFATTSYSHPNLDNLDEICMHLTNYSINKHSSNFVQDAFSGSKRKLSTFNSYMKTHGYDVEQIWRGIEDVIIKTLISAHPVIKHNYHTCFPSHTLNSACFEILGFDILLDRKLKPWLLEVNHSPSFSTDSKLDKEVKDSLLYDALVLINLGNCDKKKVLEEERQRGRFLQQCPNREIRLEEVKGFQAMRLQKTEEYEKKNCGGFRLIYPGLNLEKYDKFFQDNSSLFQNTVASRARELYARQLIQELRQKQEKKVFLKKARK", "modifications": "Atto488 on the N-terminus, through the synthetic peptide NH2-(Atto488)-… ligated with sortase"}, "B5": {"name": "TTLL6 Val422 to alanine (enzyme)", "chain": "GKKKRKKKRLVINLSNCRYDSVRRAAQQYGLREAGDNDDWTLYWTDYSVSLERVMEMKSYQKINHFPGMSEICRKDLLARNMSRMLKLFPKDFHFFPRTWCLPADWGDLQTYSRTRKNKTYICKPDSGCQGRGIFITRSVKEIKPGEDMICQLYISKPFIIDGFKFDLRVYVLVTSCDPLRVFVYNEGLARFATTSYSHPNLDNLDEICMHLTNYSINKHSSNFVQDAFSGSKRKLSTFNSYMKTHGYDVEQIWRGIEDVIIKTLISAHPVIKHNYHTCFPSHTLNSACFEILGFDILLDRKLKPWLLEVNHSPSFSTDSKLDKEVKDSLLYDALVLINLGNCDKKKVLEEERQRGRFLQQCPNREIRLEEAKGFQAMRLQKTEEYEKKNCGGFRLIYPGLNLEKYDKFFQDNSSLFQNTVASRARELYARQLIQELRQKQEKKVFLKKARK"}, "B6": {"name": "TTLL6 K490 to glutamate (enzyme)", "chain": "GKKKRKKKRLVINLSNCRYDSVRRAAQQYGLREAGDNDDWTLYWTDYSVSLERVMEMKSYQKINHFPGMSEICRKDLLARNMSRMLKLFPKDFHFFPRTWCLPADWGDLQTYSRTRKNKTYICKPDSGCQGRGIFITRSVKEIKPGEDMICQLYISKPFIIDGFKFDLRVYVLVTSCDPLRVFVYNEGLARFATTSYSHPNLDNLDEICMHLTNYSINKHSSNFVQDAFSGSKRKLSTFNSYMKTHGYDVEQIWRGIEDVIIKTLISAHPVIKHNYHTCFPSHTLNSACFEILGFDILLDRKLKPWLLEVNHSPSFSTDSKLDKEVKDSLLYDALVLINLGNCDKKKVLEEERQRGRFLQQCPNREIRLEEVKGFQAMRLQKTEEYEKKNCGGFRLIYPGLNLEKYDKFFQDNSSLFQNTVASRARELYARQLIQELRQEQEKKVFLKKARK"}, "B7": {"name": "TTLL6 F408 to alanine (enzyme)", "chain": "GKKKRKKKRLVINLSNCRYDSVRRAAQQYGLREAGDNDDWTLYWTDYSVSLERVMEMKSYQKINHFPGMSEICRKDLLARNMSRMLKLFPKDFHFFPRTWCLPADWGDLQTYSRTRKNKTYICKPDSGCQGRGIFITRSVKEIKPGEDMICQLYISKPFIIDGFKFDLRVYVLVTSCDPLRVFVYNEGLARFATTSYSHPNLDNLDEICMHLTNYSINKHSSNFVQDAFSGSKRKLSTFNSYMKTHGYDVEQIWRGIEDVIIKTLISAHPVIKHNYHTCFPSHTLNSACFEILGFDILLDRKLKPWLLEVNHSPSFSTDSKLDKEVKDSLLYDALVLINLGNCDKKKVLEEERQRGRALQQCPNREIRLEEVKGFQAMRLQKTEEYEKKNCGGFRLIYPGLNLEKYDKFFQDNSSLFQNTVASRARELYARQLIQELRQKQEKKVFLKKARK"}}, "key": {"[1]": {"biological_target": "microtubules assembled from porcine brain tubulin (porcine) (UniProt P02550)", "sequence (P02550 whole entry, chain 1 of 2)": "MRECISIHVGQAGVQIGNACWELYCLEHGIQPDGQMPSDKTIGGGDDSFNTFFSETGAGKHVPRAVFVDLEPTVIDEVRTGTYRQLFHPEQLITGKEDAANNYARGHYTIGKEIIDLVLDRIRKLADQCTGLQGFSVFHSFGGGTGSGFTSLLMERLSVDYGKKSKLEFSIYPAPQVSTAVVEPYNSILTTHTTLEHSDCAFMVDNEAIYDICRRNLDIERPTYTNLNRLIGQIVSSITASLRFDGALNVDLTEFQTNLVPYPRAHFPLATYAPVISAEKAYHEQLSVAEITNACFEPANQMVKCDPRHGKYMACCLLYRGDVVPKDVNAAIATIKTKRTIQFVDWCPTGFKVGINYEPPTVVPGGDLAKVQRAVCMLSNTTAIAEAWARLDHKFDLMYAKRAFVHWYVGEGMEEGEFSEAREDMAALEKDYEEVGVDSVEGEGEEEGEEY", "sequence (P02554 whole entry, chain 2 of 2, further chain)": "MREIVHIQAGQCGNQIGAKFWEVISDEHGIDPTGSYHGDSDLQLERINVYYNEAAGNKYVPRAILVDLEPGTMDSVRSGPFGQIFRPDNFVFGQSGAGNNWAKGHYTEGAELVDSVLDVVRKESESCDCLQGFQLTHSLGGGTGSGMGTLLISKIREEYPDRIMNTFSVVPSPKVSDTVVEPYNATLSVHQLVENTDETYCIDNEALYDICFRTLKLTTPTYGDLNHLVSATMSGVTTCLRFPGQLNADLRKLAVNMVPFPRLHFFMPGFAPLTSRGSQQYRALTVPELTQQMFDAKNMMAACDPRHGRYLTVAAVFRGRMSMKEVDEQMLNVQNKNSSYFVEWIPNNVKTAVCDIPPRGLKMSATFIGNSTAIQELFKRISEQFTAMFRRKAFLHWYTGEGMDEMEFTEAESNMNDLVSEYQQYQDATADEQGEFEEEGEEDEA"}, "[2]": {"biological_target": "microtubules assembled from porcine brain tubulin (porcine) (UniProt P02550)", "remark": "listed apart in the source"}, "[3]": {"biological_target": "unmodified human microtubules (tubulin from tsA201 cells) (human (endogenous in tsA201)) (UniProt P68363)", "assay": "TIRF microscopy binding assay"}}, "note": "Like-named read-outs stand apart in the source and are kept apart here."}
{"binder": "B1", "values": [{"measurement": "glutamylation activity with taxol-stabilized MTs, normalized to WT", "setting": "[1]", "result": "35 % of WT"}]}
{"binder": "B2", "values": [{"measurement": "glutamylation activity with taxol-stabilized MTs, normalized to WT", "setting": "[2]", "result": "< 10 % of WT"}]}
{"binder": "B3", "values": [{"measurement": "glutamylation activity with taxol-stabilized MTs, increase against WT", "setting": "[2]", "result": 59, "unit": "% increase"}]}
{"binder": "B4", "values": [{"measurement": "Kd", "setting": "[3]", "result": 210, "unit": "nM"}]}
{"binder": "B5", "values": [{"measurement": "glutamylation activity with taxol-stabilized MTs, normalized to WT", "setting": "[2]", "result": "< 10 % of WT"}]}
{"binder": "B6", "values": [{"measurement": "glutamylation activity with taxol-stabilized MTs, normalized to WT", "setting": "[1]", "result": "< 20 % of WT"}]}
{"binder": "B7", "values": [{"measurement": "glutamylation activity with taxol-stabilized MTs, increase against WT", "setting": "[2]", "result": 70, "unit": "% increase"}]}
